These results are taken from the MegaScale stability set (Tsuboyama et al. 2023).

B1: HEEH_KT_rd6_0007 (parent)
chain: SIEEEIKKAEEAKEKGKTFIHGDFVATTEELLDELLKRLRKKL

Variants of B1 are the subject of the series. Briefly: folding stability dG (cDNA display proteolysis); higher = more stable. The note with it: PBS, room temperature.
On to SIEEEIKKIEEAKEKGKTFIHGDFVATTEELLDELLKRLRKKL, for which the “folding stability dG” value stood at 1.5 kcal/mol.
Under SIEEEIKKWEEAKEKGKTFIHGDFVATTEELLDELLKRLRKKL stands 0.879 kcal/mol; under SIEEEIKKTEEAKEKGKTFIHGDFVATTEELLDELLKRLRKKL, 0.679 kcal/mol; under SIEEEIKKVEEAKEKGKTFIHGDFVATTEELLDELLKRLRKKL, 1.68 kcal/mol.
With SIEEEIKKLEEAKEKGKTFIHGDFVATTEELLDELLKRLRKKL, the “folding stability dG” value was found to be 1.44 kcal/mol.
On to SIEEEIKKFEEAKEKGKTFIHGDFVATTEELLDELLKRLRKKL, for which the “folding stability dG” value is 0.698 kcal/mol.
In the case of SIEEEIKKGEEAKEKGKTFIHGDFVATTEELLDELLKRLRKKL, the “folding stability dG” value turned out to be 0.708 kcal/mol.
With SIEEEIKKREEAKEKGKTFIHGDFVATTEELLDELLKRLRKKL, the “folding stability dG” value turned out to be 0.739 kcal/mol.
With SIEEEIKKDEEAKEKGKTFIHGDFVATTEELLDELLKRLRKKL, the “folding stability dG” value stood at 0.579 kcal/mol.
In the case of SIEEEIKKEEEAKEKGKTFIHGDFVATTEELLDELLKRLRKKL, the “folding stability dG” value came out at 0.511 kcal/mol.
Consider SIEEEIKKHEEAKEKGKTFIHGDFVATTEELLDELLKRLRKKL, for which the “folding stability dG” value turned out to be 0.516 kcal/mol.
As for SIEEEIKKNEEAKEKGKTFIHGDFVATTEELLDELLKRLRKKL, the “folding stability dG” value turned out to be 0.608 kcal/mol.
With SIEEEIKKQEEAKEKGKTFIHGDFVATTEELLDELLKRLRKKL, the “folding stability dG” value amounted to 0.596 kcal/mol.
Turning to SIEEEIKKCEEAKEKGKTFIHGDFVATTEELLDELLKRLRKKL, the “folding stability dG” value is 1.78 kcal/mol.
SIEEEIKKMEEAKEKGKTFIHGDFVATTEELLDELLKRLRKKL: the “folding stability dG” value was 0.926 kcal/mol.
For SIEEEIKKYEEAKEKGKTFIHGDFVATTEELLDELLKRLRKKL, the “folding stability dG” value amounted to 0.662 kcal/mol.
To SIEEEIKKPEEAKEKGKTFIHGDFVATTEELLDELLKRLRKKL belongs 0.556 kcal/mol; to SIEEEIKKAEKAKEKGKTFIHGDFVATTEELLDELLKRLRKKL, 0.817 kcal/mol.
On to SIEEEIKKAEHAKEKGKTFIHGDFVATTEELLDELLKRLRKKL, for which the “folding stability dG” value was found to be 0.939 kcal/mol.
To SIEEEIKKAELAKEKGKTFIHGDFVATTEELLDELLKRLRKKL belongs 1.1 kcal/mol.
As for SIEEEIKKAENAKEKGKTFIHGDFVATTEELLDELLKRLRKKL, the “folding stability dG” value turned out to be 0.868 kcal/mol.
Under SIEEEIKKAEQAKEKGKTFIHGDFVATTEELLDELLKRLRKKL stands 1.06 kcal/mol; under SIEEEIKKAEYAKEKGKTFIHGDFVATTEELLDELLKRLRKKL, 1.17 kcal/mol; under SIEEEIKKAEGAKEKGKTFIHGDFVATTEELLDELLKRLRKKL, 0.705 kcal/mol.
Under SIEEEIKKAEWAKEKGKTFIHGDFVATTEELLDELLKRLRKKL stands 1.2 kcal/mol.
As to SIEEEIKKAERAKEKGKTFIHGDFVATTEELLDELLKRLRKKL, the “folding stability dG” value is 0.941 kcal/mol.
In the case of SIEEEIKKAEIAKEKGKTFIHGDFVATTEELLDELLKRLRKKL, the “folding stability dG” value worked out at 1.03 kcal/mol.
To SIEEEIKKAETAKEKGKTFIHGDFVATTEELLDELLKRLRKKL belongs 1.04 kcal/mol; to SIEEEIKKAEVAKEKGKTFIHGDFVATTEELLDELLKRLRKKL, 0.953 kcal/mol.
Take SIEEEIKKAEDAKEKGKTFIHGDFVATTEELLDELLKRLRKKL: the “folding stability dG” value amounted to 1.27 kcal/mol.
On to SIEEEIKKAECAKEKGKTFIHGDFVATTEELLDELLKRLRKKL, for which the “folding stability dG” value is 1.5 kcal/mol.
As for SIEEEIKKAESAKEKGKTFIHGDFVATTEELLDELLKRLRKKL, the “folding stability dG” value amounted to 0.928 kcal/mol.
Turning to SIEEEIKKAEMAKEKGKTFIHGDFVATTEELLDELLKRLRKKL, the “folding stability dG” value turned out to be 1.05 kcal/mol.
Turning to SIEEEIKKAEFAKEKGKTFIHGDFVATTEELLDELLKRLRKKL, the “folding stability dG” value was 0.946 kcal/mol.
Consider SIEEEIKKAEAAKEKGKTFIHGDFVATTEELLDELLKRLRKKL, for which the “folding stability dG” value came to 1.16 kcal/mol.
For the variant SIEEEIKKAEPAKEKGKTFIHGDFVATTEELLDELLKRLRKKL, the “folding stability dG” value was 0.576 kcal/mol.
Consider SIEEEVKKAEEAKEKGKTFIHGDFVATTEELLDELLKRLRKKL, for which the “folding stability dG” value came out at 0.729 kcal/mol.
With SIEEEHKKAEEAKEKGKTFIHGDFVATTEELLDELLKRLRKKL, the “folding stability dG” value was found to be 0.603 kcal/mol.
Take SIEEENKKAEEAKEKGKTFIHGDFVATTEELLDELLKRLRKKL: the “folding stability dG” value is 0.587 kcal/mol.
As to SIEEEWKKAEEAKEKGKTFIHGDFVATTEELLDELLKRLRKKL, the “folding stability dG” value came out at 0.615 kcal/mol.
Regarding SIEEERKKAEEAKEKGKTFIHGDFVATTEELLDELLKRLRKKL, the “folding stability dG” value turned out to be 0.719 kcal/mol.
On to SIEEEMKKAEEAKEKGKTFIHGDFVATTEELLDELLKRLRKKL, for which the “folding stability dG” value was found to be 0.782 kcal/mol.
For SIEEEKKKAEEAKEKGKTFIHGDFVATTEELLDELLKRLRKKL, the “folding stability dG” value was found to be 0.651 kcal/mol.
As to SIEEEYKKAEEAKEKGKTFIHGDFVATTEELLDELLKRLRKKL, the “folding stability dG” value was 0.676 kcal/mol.
Take SIEEEDKKAEEAKEKGKTFIHGDFVATTEELLDELLKRLRKKL: the “folding stability dG” value is 0.648 kcal/mol.
For the variant SIEEEFKKAEEAKEKGKTFIHGDFVATTEELLDELLKRLRKKL, the “folding stability dG” value turned out to be 0.542 kcal/mol.
To SIEEESKKAEEAKEKGKTFIHGDFVATTEELLDELLKRLRKKL belongs 0.742 kcal/mol; to SIEEEPKKAEEAKEKGKTFIHGDFVATTEELLDELLKRLRKKL, 0.487 kcal/mol; to SIEEEAKKAEEAKEKGKTFIHGDFVATTEELLDELLKRLRKKL, 0.662 kcal/mol.
On to SIEEELKKAEEAKEKGKTFIHGDFVATTEELLDELLKRLRKKL, for which the “folding stability dG” value is 1.04 kcal/mol.
For SIEEEEKKAEEAKEKGKTFIHGDFVATTEELLDELLKRLRKKL, the “folding stability dG” value was 0.593 kcal/mol.
SIEEETKKAEEAKEKGKTFIHGDFVATTEELLDELLKRLRKKL: the “folding stability dG” value worked out at 0.576 kcal/mol.
Turning to SIEEEQKKAEEAKEKGKTFIHGDFVATTEELLDELLKRLRKKL, the “folding stability dG” value was 0.793 kcal/mol.
To SIEEEGKKAEEAKEKGKTFIHGDFVATTEELLDELLKRLRKKL belongs 0.684 kcal/mol; to SIEEEIKKAEEGKEKGKTFIHGDFVATTEELLDELLKRLRKKL, 0.482 kcal/mol; to SIEEEIKKAEEEKEKGKTFIHGDFVATTEELLDELLKRLRKKL, 0.703 kcal/mol.
Under SIEEEIKKAEEFKEKGKTFIHGDFVATTEELLDELLKRLRKKL stands 0.689 kcal/mol.
Consider SIEEEIKKAEECKEKGKTFIHGDFVATTEELLDELLKRLRKKL, for which the “folding stability dG” value amounted to 1.78 kcal/mol.
As for SIEEEIKKAEEDKEKGKTFIHGDFVATTEELLDELLKRLRKKL, the “folding stability dG” value came to 0.737 kcal/mol.
